According to article PMC5843355, “Evaluation of the Trypanosoma brucei 6-oxopurine salvage pathway as a potential target for drug discovery” (PLoS Neglected Tropical Diseases, 2018):
Where “and” joins values, the source holds several entries; their conditions need not be identical. Equal entries are not always repeated.

How the values were obtained:
[1] = substrate: O=c1[nH]cnc2nc[nH]c12; test: purified protein, by the assay type; conditions: PRib-PP 1 mM, pH 8.4, 25°C
[2] = substrate: O=c1[nH]c(=O)c2[nH]cnc2[nH]1; test: purified protein, by the assay type; conditions: other: HGXPRT, PRib-PP 1 mM, pH 8.4, 25°C
[3] = substrate: Nc1nc2nc[nH]c2c(=O)[nH]1; test: purified protein, by the assay type; conditions: PRib-PP 1 mM, pH 8.4, 25°C
[4] = substrate: Nc1nc2nc[nH]c2c(=O)[nH]1; test: Steady-state kinetic constants of 6-oxopurine bases for HGPRT-I; type: biochemical, Trypanosoma brucei; conditions: other: HGPRT-I, PRib-PP 1 mM, pH 8.4, 25°C
Procedure: The concentration of enzyme in the assay (varied from 75–200 μg/ml for the two enzymes) and the concentration of PRib-PP was kept at 1 mM. The reaction was carried out using a 1.0 cm path length with a UV Visible spectrometer 1601 (Shimadzu) in the reaction buffer (0.1 M Tris, pH 8.4; 0.11 M MgCl2; at 25°C).

B1: HGXPRT (Trypanosoma brucei brucei TREU927) (protein)
chain: HSGHPLKPNFVGRDADGNVTVDGRSYPMAESVVATESTIHRSMKEMAQTLANAYKTLKHRDTHNKGNSALAPITDENPLIIISVLKGSYIFTADMVRYLGDCGLPNVVDFIRITSYRGTTKSSGTVQVLDNLRFTELTGKHVLIMEDIADTGRTMKLLVEKIRREYRPASLKVCVLVDKPGGRVVDFKPEFVCLTAPTRYVVGYGFEVNDRYRNYRHVFVLKPEYAKRYPSKL
Work on B1 yielded a Km ([1]; other: HGXPRT) of 30.6 ± 7.8 µM, a kcat ([1]; other: HGXPRT) of 2.4 s⁻¹ and a kcat/Km ([1]; other: HGXPRT) of 80000 M⁻¹ s⁻¹. The Km [2] was 31.9 ± 7.5 µM, the kcat [2] was 3.66 s⁻¹ and the kcat/Km [2] was 110000 M⁻¹ s⁻¹. It also gave a Km ([3]; other: HGXPRT) of 32 ± 4.8 µM.

B2: HGPRT-I (Trypanosoma brucei brucei) (protein)
chain: EPACKYDFATSVLFTEAELHTRMRGVAQRIADDYSNCNLKPLENPLVIVSVLKGSFVFTADMVRILGDFGVPTRVEFLRASSYGHDTKSCGRVDVKADGLCDIRGKHVLVLEDILDTALTLREVVDSLKKSEPASIKTLVAIDKPGGRKIPFTAEYVVADVPNVFVVGYGLDYDQSYREVRDVVILKPSVYETWGKELERRKAAGEAKR
notes: 6x His-tag (N); AcTEV cleavage site (N); made in house; host or cells: E. coli One Shot BL21(DE3)
B2 was tested, and the Km [4] was 16 µM and 15.9 ± 4.8 µM, the kcat [4] was 0.38 s⁻¹ and the kcat/Km [4] was 20000 M⁻¹ s⁻¹. For the same protein, the Km ([1]; other: HGPRT-I) was 13.7 ± 2.9 µM.

B3: HGPRT-II (Trypanosoma brucei brucei TREU927) (protein)
chain: EPACKYDFATSVLFTEAELHTRMRGVAQRIADDYSNCNLKPLENPLVVVSVLRGSFVFTADMVRILGDFGVPTRVEFLRASSYGHDTKSCGRVDVKADGLCDIRGKHVLVLEDILDTALTLREVVDSLKKSEPASIKTLVAIDKPGGRKIPFTAEYVVADVPNVFVVGYGLDYDQSYREVRDVVILKPSVYETWGKELERRKAAVKAKL
Work on B3 yielded a Km ([1]; other: HGPRT-II) of 4.2 ± 0.9 µM, a kcat ([1]; other: HGPRT-II) of 0.03 s⁻¹ and a kcat/Km ([1]; other: HGPRT-II) of 7000 M⁻¹ s⁻¹. It also gave a Km ([3]; other: HGPRT-II) of 7.1 ± 1.8 µM.
